The labels stand for the following.
B1: Twister Ribozyme (parent)
chain: AACACUGCCAAUGCCGGUCCCAAGCCCGGAUAAAAGUGGAGGGGGCGG

Variants of B1 are the subject of the data set. Description: self-cleavage, relative activity (ratio to wild type); higher = more cleavage; co-transcriptional.
As to AACACUGCCAAUGCCGGUCCCAAGCCCGGAAAAAAGGGGAGGGGGCGG, the self-cleavage turned out to be 0.659.

As to AUCACUGCCAAUGCCGGUCCCAAGCCCGGAUAAAAGUGCAGGGGGCGG, the self-cleavage was 0.18. On to AACACUGCCAAUGCCGGUCCCAAGCCCCGAUAAAAGUGGAUGGGGCGG, for which the self-cleavage stood at 0.332. With AACACUGCCAAUGCCAGUCCCAAGCCCGGAUAAAGGUGGAGGGGGCGG the figure was 0.555; with AACACUGCCAAUGCCGGUCCUAAGCCCGGAAAAAAGUGGAGGGGGCGG, 0.105; with AACACUACCAAUGACGGUCCCAAGCCCGGAUAAAAGUGGAGGGGGCGG, 0.371. Under AACACUGCCAAUGGCGGUCCCAAGCCCUGAUAAAAGUGGAGGGGGCGG stands 0.157; under AACACUGCCAGUGCCGGUCCCAAGCCCGGAUAAAAUUGGAGGGGGCGG, 0.431. As to AACACUGCCAAUGCCGGUCCCUAGCCCGGAUAAAAGUGGAGUGGGCGG, the self-cleavage worked out at 0.191. With AACACUGCCAAUGCCGGUCCCAUGCCCAGAUAAAAGUGGAGGGGGCGG, the self-cleavage was determined as 0.211. Regarding AUCACUGCCAAUGCCGGUCCCAAGCCCGGAUAAAAGUGGAGGGGGCGC, the self-cleavage stood at 0.67. With AACACUGUCAAUGCCGGUCCCAAGCACGGAUAAAAGUGGAGGGGGCGG the figure was 0.117.

Consider AACACUGCCAAUGCCGGUCCCAAGCCCGGAUAAAAGUAGAGAGGGCGG, for which the self-cleavage came to 0.176. Turning to AACACUGCCAAUGCUGGUCCCAAGCCCGGAUAAAAGUGGAGGGGGCGG, the self-cleavage is 0.975. Under AACACUGGCAAUGCCGGUCCCAAGCCUGGAUAAAAGUGGAGGGGGCGG stands 0.14; under AACACUGCCAAUGCCGGUCCCAAGUACGGAUAAAAGUGGAGGGGGCGG, 0.0893; under AACACUGCCAAUGCCGGUCCCAAGCCCGGAUAAAAGAGGAAGGGGCGG, 0.16.

On to AACACUGCCAAUGCCGGUCCCAUGCCCGGAGAAAAGUGGAGGGGGCGG, for which the self-cleavage was found to be 0.643. Under AACACGGCCAAUGCCGGUCCCAAGCCCGGAUAAAAGUGGUGGGGGCGG stands 0.181. On to UACACUGCGAAUGCCGGUCCCAAGCCCGGAUAAAAGUGGAGGGGGCGG, for which the self-cleavage was found to be 0.0577.

For the variant AACACUGCCAAUGCCGGUCCCAAGCCCGUAUAAAAGUGGAGGAGGCGG, the self-cleavage came to 0.23. Under AACACUGCCAAUGCCGGUCCCAAGCCGGGGUAAAAGUGGAGGGGGCGG stands 0.0912; under AACACUGCCAAUGCGGGUCCCAAGCCCGGAUAAAAGUGGAGGGGCCGG, 0.0924; under AACACUGCCAAUGCCGGCCCCAAGCCCGGAUAGAAGUGGAGGGGGCGG, 0.503. Regarding AACGAUGCCAAUGCCGGUCCCAAGCCCGGAUAAAAGUGGAGGGGGCGG, the self-cleavage amounted to 0.892.

Consider UACACUGCCAAUGCCGGUCCCAAGCUCGGAUAAAAGUGGAGGGGGCGG, for which the self-cleavage was 0.0863. As for AACACUGCCAAUGCCGGUCCCAAUCCGGGAUAAAAGUGGAGGGGGCGG, the self-cleavage is 0.0792. AACACGGCCAAUGCCGUUCCCAAGCCCGGAUAAAAGUGGAGGGGGCGG: the self-cleavage is 0.0541. In the case of AACACUGCCAAUGCCGGUCCCAAGCCCGGAUAAAAGAGGAGGUGGCGG, the self-cleavage turned out to be 0.186.

Take AACACUGCCAAUGCCGGUCCCAAACCCGGAUAAACGUGGAGGGGGCGG: the self-cleavage amounted to 0.102. With AACACUGCCAAUGCCGGUCAAAAGCCCGGAUAAAAGUGGAGGGGGCGG the figure was 0.0664; with AAUACUGCCAAUGCCGGUCCCAACCCCGGAUAAAAGUGGAGGGGGCGG, 0.0842; with AACACUGCCAAUGCCGGUCCCAAGCCCGGAUAAAAGUCGAGGGGGCGG, 0.951. For the variant AACAUUGCAAAUGCCGGUCCCAAGCCCGGAUAAAAGUGGAGGGGGCGG, the self-cleavage was found to be 0.349. AACACUGCCAAUGCCGGUCCCAAGCGCGGGUAAAAGUGGAGGGGGCGG: the self-cleavage stood at 0.214. Under AACACUGCCAAUGCCGGUCCCAAGCCCGGAUAUAAGUGAAGGGGGCGG stands 0.512. For the variant AACACUGCCAAUGCCGGUCCCAAGCCAGGAUAAAAGUGGAGGGGGCGC, the self-cleavage was found to be 0.563.

As to AACACUGCCAAUGCCGGUCCCUAGCCCGGAUAAAAGUUGAGGGGGCGG, the self-cleavage was 0.353. With AACACUGCCAAUGCCGGUCCCAAGCCCAGAUAAAAGUGGAGGGAGCGG, the self-cleavage was found to be 0.702. Under AACACUGCCAAUGCCGGGCCCAAGCCCGGAUAAAAGUUGAGGGGGCGG stands 0.0721; under AACACUCCCAAUGCCGGUCCCAAGCCCGGAUAAAAGUGGAAGGGGCGG, 0.0519; under AACACUGCCAAAGCCGGUCCCAAGCCUGGAUAAAAGUGGAGGGGGCGG, 0.945.

As to AACACUGCCAAUGCCGGUCCCCAGCCCGGAUAAAAGUGGAGGGGGCGC, the self-cleavage turned out to be 1.16. Under AACACUGCCAAUGCCGGUCCCAGGCCCGGAUUAAAGUGGAGGGGGCGG stands 0.393; under GACACUGCCAAUGCCGGUCCCAAGCCCGGAUAAAAGUGGGGGGGGCGG, 0.227.

Consider AACACUGCCAAUGCCGUUCCCAAGCCCGGCUAAAAGUGGAGGGGGCGG, for which the self-cleavage is 0.147. With AACACUGCCUGUGCCGGUCCCAAGCCCGGAUAAAAGUGGAGGGGGCGG the figure was 1.09; with AACACUGCCAUUGCGGGUCCCAAGCCCGGAUAAAAGUGGAGGGGGCGG, 0.0907. As for AUCACUGCCAAUGCCGGUCGCAAGCCCGGAUAAAAGUGGAGGGGGCGG, the self-cleavage was 0.0669. Under AACACUGCCAAUGCCGGUCCCAAGCCCGGAUAAUAGUGGAGAGGGCGG stands 0.169.

Take AACACUGCCAAUGCCGUUCCCAAGCCCGGAUAAAAGUGGAAGGGGCGG: the self-cleavage turned out to be 0.103. Under AACACUACCAAUGCCGGUCCCAAGCCCGGAUAAAAGUGGAGGGGGUGG stands 0.579; under AACACUGCCAAUGCCGGUCCCUCGCCCGGAUAAAAGUGGAGGGGGCGG, 0.0587; under AACACUGCCGAUGCCGGUCCCAAGCCCGGAUAAAAGUGGAGGGGUCGG, 0.883. Under ACCACUGCCAAUGCCGGUCGCAAGCCCGGAUAAAAGUGGAGGGGGCGG stands 0.0956; under AAAAUUGCCAAUGCCGGUCCCAAGCCCGGAUAAAAGUGGAGGGGGCGG, 0.159; under AACACGGGCAAUGCCGGUCCCAAGCCCGGAUAAAAGUGGAGGGGGCGG, 0.2. In the case of AACACUGCCAAUGCCGGUCCCAAGCCGGGAUAAAAGUGGAGCGGGCGG, the self-cleavage came out at 0.082. For the variant AACACUGCCAAUGCCGGUCCCAAGCCCGGAUAAAAGAGUAGGGGGCGG, the self-cleavage is 0.159.

AACACUGCGAAUGCCGGUCCCACGCCCGGAUAAAAGUGGAGGGGGCGG: the self-cleavage amounted to 0.0567. On to AACACUGCCAAUGCCGGCCCCAUGCCCGGAUAAAAGUGGAGGGGGCGG, for which the self-cleavage was 0.242.

Consider AACACUGCCAAUGCCGGUCCCAAGCCCGGAUAACAGUGGAGGGGGCCG, for which the self-cleavage was 0.177.

For the variant AACACUGCCAAUGCCGGCCCCAAGCCCGGAUAAAAGUGGAAGGGGCGG, the self-cleavage stood at 0.137. Under AACACUGCCAAUGCCGAUCCCAAGCCCGGAUAUAAGUGGAGGGGGCGG stands 0.614. With AACACUACAAAUGCCGGUCCCAAGCCCGGAUAAAAGUGGAGGGGGCGG the figure was 0.0651; with AUCACUGCCAAUGCCGGUCCCAAGCCCUGAUAAAAGUGGAGGGGGCGG, 0.519.

AACACUGCAAAUGCCGGUCUCAAGCCCGGAUAAAAGUGGAGGGGGCGG: the self-cleavage is 0.15. Under AACACUUCCAAUGCCGGUCCAAAGCCCGGAUAAAAGUGGAGGGGGCGG stands 0.0755; under AACAUUGCCAAUGCCGGUCCCAAGCCCGGAUAAAAAUGGAGGGGGCGG, 0.852; under AACACUAGCAAUGCCGGUCCCAAGCCCGGAUAAAAGUGGAGGGGGCGG, 0.153.

Consider CACACUGCCAAUGCCGGUCCCAAGCCCGGAUAAAAGUGGAGGGGGCCG, for which the self-cleavage was 0.199. Under AACACUGCCAAUACCGGUCCCAAGCCCGGAUAGAAGUGGAGGGGGCGG stands 0.943; under AACACUGCCAAUGUCGGUACCAAGCCCGGAUAAAAGUGGAGGGGGCGG, 0.429; under AACACUGCCAAUGCUGGUCCCCAGCCCGGAUAAAAGUGGAGGGGGCGG, 0.932. With AACACCGCCAACGCCGGUCCCAAGCCCGGAUAAAAGUGGAGGGGGCGG the figure was 0.613; with AACACUGCCAAUGCCGGUCCCCAGCCCGGAUAAAAGGGGAGGGGGCGG, 0.631; with AACACUGCCAAUGCGGGUCCCAAGCCCGGAUAAAAGUGGAGGGGGCGC, 0.0718. Under AACACUGCCAAUGCCGGUCCCUAGCCCGGAUAAAAGUGGAGGUGGCGG stands 0.185; under AACACUCCCAAUUCCGGUCCCAAGCCCGGAUAAAAGUGGAGGGGGCGG, 0.0637; under AACACUGCCAAUGCCGGUCCCAAGACCGGAUAUAAGUGGAGGGGGCGG, 0.0752. As for AACACUGCCAAUGCCGGUCCCAUGCCCGGAUGAAAGUGGAGGGGGCGG, the self-cleavage was found to be 0.45.

In the case of AACACUGCCAAUGCCGGUCCCAAGCCCGGAUAAAUGUGGAGGGGUCGG, the self-cleavage was determined as 0.812.

In the case of AACACUGCCAAGGCCGGUCCCAAGCCCGGAUAAAUGUGGAGGGGGCGG, the self-cleavage worked out at 0.848. Under AACACUGCCAAUGCCCGUCCCAAGCGCGGAUAAAAGUGGAGGGGGCGG stands 0.0968; under AACACUGCCAAUGCCGGUCCCAAGCCCGGAUAAAAGUGGACGGGACGG, 0.334. Under AACACUGCCAAUGACGGUCCCAAGCCCGGGUAAAAGUGGAGGGGGCGG stands 0.803; under AACACUGCCAAUGCCGGUCCCAAGCCCGGAGAAAAGUGGAAGGGGCGG, 0.574; under AACAGUGCCAAUGCCGGUCCCAAGCCCGGAUAAAAGUGGUGGGGGCGG, 0.0886. With AACACUGCCAAUGCCGGUCCCACGCCCGGAUAAAAGUGGAUGGGGCGG the figure was 0.118; with AACAAUGCCAAUGCCGGUCCCAAGCCCGGAUAUAAGUGGAGGGGGCGG, 0.492; with UACACUGCCAAUGCCGGUCCCAAGCCCGGAUAAACGUGGAGGGGGCGG, 0.0998. For AACACUGCCAAUGCCGGCCCCAAGCCCGGAUAAAAGUGGAGGAGGCGG, the self-cleavage came to 0.188. With AACACUGCCCCUGCCGGUCCCAAGCCCGGAUAAAAGUGGAGGGGGCGG the figure was 0.907. Under AACACUGCCAAUGUCGGUCCCAAGCCCGGAUAAAAGUGGAGGGGGAGG stands 1.05; under AACACUGCCAAUGCCAGUCCCAAGCCCGGAUAAGAGUGGAGGGGGCGG, 0.574; under AACACUGCGAAUGCCGGUCCCAAGCCCGGAUAAGAGUGGAGGGGGCGG, 0.238. On to AACACUGGCAAUGCCAGUCCCAAGCCCGGAUAAAAGUGGAGGGGGCGG, for which the self-cleavage came out at 0.061. As for UACACUGCCAAUGCCGGUCCCAAGCCCGGUUAAAAGUGGAGGGGGCGG, the self-cleavage was found to be 0.0367.

For the variant AACACUGCCAAAGCCGGUCCCAAGCCCGGAUAAAAGUGGAGCGGGCGG, the self-cleavage was 0.601. Turning to AACACUGCCAAUGCCGGUCCCAAGGCCGGAUAAAAGAGGAGGGGGCGG, the self-cleavage was found to be 0.166.

In the case of AACACUGCCAAUGCCGGUCCCAGGCCCGGAUAAAUGUGGAGGGGGCGG, the self-cleavage was 0.472. Under AACACUGGCAAUGCCGGUCCCAAGCCCGGAUAAAAGUGGAGUGGGCGG stands 0.147; under AACACUGCCAAUGCCGGUCCCAAGCAGGGAUAAAAGUGGAGGGGGCGG, 0.0974; under AACACUGCCAAUGCCGGUCCCAAGCACGGAUAAAAGUGUAGGGGGCGG, 0.116. Under AACACUUCCAAUGCCGGUCCCAAGCCCGGAUAGAAGUGGAGGGGGCGG stands 0.0484; under AACACUGCCAAUGCCGAGCCCAAGCCCGGAUAAAAGUGGAGGGGGCGG, 0.123.

Take AACACUGCCAAUGCCGAACCCAAGCCCGGAUAAAAGUGGAGGGGGCGG: the self-cleavage came to 0.18. Under AACACUGCGAAUGCAGGUCCCAAGCCCGGAUAAAAGUGGAGGGGGCGG stands 0.278.

The values above are taken from the RNAGym collection of RNA variant scans (doi:10.7554/elife.80360).
